Measurements as given in patent US20190375846A1 (ULTRAHUMAN ONE, published 2019).

T1: human GITR-Fc (human, UniProt Q9Y5U5 26-161)
T1 construct: Recombinant GITR-Fc; also called hGITR-Fc; hGITR; not shown: Fc part
T1 sequence (looked up): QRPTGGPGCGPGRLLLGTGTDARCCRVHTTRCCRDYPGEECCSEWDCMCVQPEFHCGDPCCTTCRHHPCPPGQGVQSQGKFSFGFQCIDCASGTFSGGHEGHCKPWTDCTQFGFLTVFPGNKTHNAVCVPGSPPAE

T2: human GITR at the cell surface (human, UniProt Q9Y5U5 26-241)
T2 construct: whole, on cells; The cell type is named in the assay field of each row; also called human GITR+ cells; CHO-K1 human GITR+ cells
T2 sequence (looked up): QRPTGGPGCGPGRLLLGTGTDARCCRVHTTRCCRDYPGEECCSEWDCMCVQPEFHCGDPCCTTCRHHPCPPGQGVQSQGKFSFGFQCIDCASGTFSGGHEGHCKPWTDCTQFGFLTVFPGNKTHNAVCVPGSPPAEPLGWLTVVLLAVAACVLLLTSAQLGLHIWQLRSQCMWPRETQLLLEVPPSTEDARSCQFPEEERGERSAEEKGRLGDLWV

B1: chimeric anti-GITR IgG1 mVH/mVL (6C8 murine v-domains) (antibody, V domains shown)
VH: QVTLKESGPGILKPSQTLSLTCSFSGFSLSTSGMGVGWIRQPSGKGLEWLAHIWWDDDKYYNPSLKSQLTISKDTSRNQVFLKITSVDTADAATYYCARTRRYFPFAYWGQGTLVTVSS
VL: DIVMTQSQKFMSTSVGDRVSVTCKASQNVGTNVAWYQQKPGQSPKALIYSASYRYSGVPDRFTGSGSGTDFTLTINNVHSEDLAEYFCQQYNTDPLTFGAGTKLEIK
notes: Full-length human IgG1, kappa; also called GITR-mVH/mVL; chimeric IgG
B2: D-A6 IgG1 (antibody, V domains shown)
VH: EVQLVESGGGLVQPGGSLRLSCAASGFSLSTSGYGVGWVRQAPGKGLEWLAHIWWDDDKYYVDSVKGRFTISRDNAKNSLYLQMNSLRAEDTAVYYCARTRQYFPFAYWGQGTLVTVSS
VL: EIVLTQSPATLSLSPGERATLSCRASQSVGSNLAWYQQKPGQAPRLLIYSASYRYTGIPARFSGSGSGTDFTLTISSLEPEDFAVYYCQQYSTDPLTFGGGTKVEIK
notes: Human IgG1

Assays:
human GITR-Fc = target: T1, human GITR-Fc; assay: direct titration ELISA, coated human GITR-Fc, IgG1
Method: (§1) To coat Greiner Bio-One High bind ELISA plates, target proteins were diluted to 1 μg/ml in carbonate buffer and added at 100 μl per well, at 4° C., o/n. Coated plates were washed 3× with PBS pH7.4, blocked with 1% BSA in PBS (380 μl/well) for 1 hr at RT, then washed 3× with PBS-Tween 20 (PBST). GITR antibodies (100 μl/well; diluted in PBST) were then added and then incubated 1 hr at RT. Plates were then washed 3× with PBST and goat anti-human kappa chain-HRP added (100 μl/well) at RT, for 1 hr. Plates were then washed 3× with PBST and twice with PBS before the addition of 100 μl TMB per well. Reactions were stopped by adding 100 μl 2M H₂SO₄/well and OD was read on a plate reader at 450 nm. IgG binding analysis via ELISA on negatively charged biomolecular surfaces were performed as previously described (see Mouquet et al., 2010, Nature 467: 591-595).
Retention of GITR-binding function in the purified IgG1 proteins was first examined by titration in direct binding ELISA against human GITR-Fc. […] Importantly, the >100-fold loss of binding function in the VH2 IgG family further illustrated that the HCDR1 could not be fully germ-lined a priori to match the native sequence of the human germline HCDR1 found in the framework used for grafting (IGHV3-7).

[1] = target: T3, cynomolgus monkey GITR-Fc (cynomolgus monkey (Macaca fascicularis)); assay: direct titration ELISA on coated cyno GITR-Fc, IgG1 0.001-1 µg/ml, OD 450 nm
T3 construct: also called cyno GITR-Fc; cGITR-Fc
Method: as §1
The 17 purified IgGs described above were then tested for binding to human and cyno GITR-Fc in direct titration ELISA format.

[2] = target: T2, human GITR at the cell surface; assay: flow cytometry on CHO-K1 human GITR+ cells; competitor: soluble human GITRL

Binder	EC50 (human GITR-Fc) [µg/mL]	EC50 (read off the curve) [1] [µg/mL]	fold reduction of binding signal in the presence of 10 µg/ml soluble GITRL [2] [fold]
B1	≥ 0.004	~0.05	–
B2	–	–	> 10
